{
  "source": "paper PMC6386767",
  "about": "“Characterization of recombinant fructose-1,6-bisphosphatase gene mutations: evidence of inhibition/activation of FBPase protein by gene mutation” (Bioscience Reports, 2019)",
  "molecules": {"B1": {"name": "K112A: pig kidney FBPase mutant, lysine to alanine, AMP-binding site (protein, UniProt P00636 2-338, looked up, variant K112A)", "Fructose-1,6-bisphosphatase 1": "TDQAAFDTNIVTLTRFVMEEGRKARGTGEMTQLLNSLCTAVKAISTAVRKAGIAHLYGIAGSTNVTGDQVKKLDVLSNDLVINVLKSSFATCVLVSEEDKNAIIVEPEKRGAYVVCFDPLDGSSNIDCLVSIGTIFGIYRKNSTDEPSEKDALQPGRNLVAAGYALYGSATMLVLAMVNGVNCFMLDPAIGEFILVDRDVKIKKKGSIYSINEGYAKEFDPAITEYIQRKKFPPDNSAPYGARYVGSMVADVHRTLVYGGIFMYPANKKSPKGKLRLLYECNPMAYVMEKAGGLATTGKEAVLDIVPTDIHQRAPIILGSPEDVTELLEIYQKHAAK"}, "B2": {"name": "WT: recombinant wild-type pig kidney FBPase enzyme (protein, UniProt P00636 2-338, looked up)", "Fructose-1,6-bisphosphatase 1": "B1 Fructose-1,6-bisphosphatase 1 with A112K"}, "B3": {"name": "L73A: pig kidney FBPase mutant Leu^73 to alanine, near PFE tetramer interface site (protein, UniProt P00636 2-338, looked up, variant L73A)", "Fructose-1,6-bisphosphatase 1": "B1 Fructose-1,6-bisphosphatase 1 with L73A, A112K"}, "B4": {"name": "Y113A: pig kidney FBPase mutant, tyrosine to alanine, AMP-binding site (protein, UniProt P00636 2-338, looked up, variant Y113A)", "Fructose-1,6-bisphosphatase 1": "B1 Fructose-1,6-bisphosphatase 1 with A112K, Y113A"}, "B5": {"name": "M248D: pig kidney FBPase active site mutant Met^248 to aspartic acid (protein, UniProt P00636 2-338, looked up, variant M248D)", "Fructose-1,6-bisphosphatase 1": "B1 Fructose-1,6-bisphosphatase 1 with A112K, M248D"}, "B6": {"name": "M177A: pig kidney FBPase mutant, methionine to alanine, interfacial (protein, UniProt P00636 2-338, looked up, variant M177A)", "Fructose-1,6-bisphosphatase 1": "B1 Fructose-1,6-bisphosphatase 1 with A112K, M177A"}, "B7": {"name": "L56A: pig kidney FBPase mutant Leu^56 to alanine, near PFE tetramer interface site (protein, UniProt P00636 2-338, looked up, variant L56A)", "Fructose-1,6-bisphosphatase 1": "B1 Fructose-1,6-bisphosphatase 1 with L56A, A112K"}, "B8": {"name": "Y164A: pig kidney FBPase mutant, tyrosine to alanine, interfacial (protein, UniProt P00636 2-338, looked up, variant Y164A)", "Fructose-1,6-bisphosphatase 1": "B1 Fructose-1,6-bisphosphatase 1 with A112K, Y164A"}},
  "type_in_all_cases": "binding",
  "key": {"[1]": {"molecular_target": "T1, pig kidney FBPase K112A (Sus scrofa, UniProt P00636, K113A)", "T1 construct": "His6 (C); made in house; host or cells: Escherichia coli BL21 (DE3)", "T1 sequence (P00636 1-338 K113A)": "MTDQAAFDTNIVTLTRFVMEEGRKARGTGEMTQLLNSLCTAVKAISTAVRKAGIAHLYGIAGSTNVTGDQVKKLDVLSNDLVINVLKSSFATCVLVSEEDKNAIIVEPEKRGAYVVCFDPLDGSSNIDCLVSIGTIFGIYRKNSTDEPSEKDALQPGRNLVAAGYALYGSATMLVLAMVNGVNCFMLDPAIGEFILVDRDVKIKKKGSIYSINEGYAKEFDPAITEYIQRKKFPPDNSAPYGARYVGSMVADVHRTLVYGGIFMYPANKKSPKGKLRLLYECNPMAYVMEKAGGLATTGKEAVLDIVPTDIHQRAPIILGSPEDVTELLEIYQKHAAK", "test": "Differential scanning fluorimetry, K112A mutant", "settings": "no ligand", "experimental": "(§1) Differential scanning fluorimetry (DSF) assays were designed and implemented to run on WT and each mutant for the purpose of determining relative stabilities by melting point, and to detect structural changes in the enzymes upon ligand binding. Thermal shift assays were performed with a Light Cycler 96 System Real-Time PCR machine (Roche) using Sypro-Orange dye (Invitrogen) and thermal ramping (0.25°C per min between 20 and 85°C). […] Data were processed using the Boltzmann equation to generate sigmoidal denaturation curves, and average Tm/ΔTm values were calculated as previously described using GraphPad Prism software package."}, "[2]": {"molecular_target": "T2, pig kidney FBPase WT (Sus scrofa, UniProt P00636)", "T2 construct": "His6 (C); made in house; host or cells: Escherichia coli BL21 (DE3)", "T2 sequence (P00636 1-338)": "T1 sequence (P00636 1-338 K113A) with A113K", "test": "Differential scanning fluorimetry, WT enzyme", "settings": "enzyme WT 5 µM, no ligand", "experimental": "as §1"}, "[3]": {"molecular_target": "T3, pig kidney FBPase L73A (Sus scrofa, UniProt P00636, L74A)", "T3 construct": "His6 (C); made in house; host or cells: Escherichia coli BL21 (DE3)", "T3 sequence (P00636 1-338 L74A)": "T1 sequence (P00636 1-338 K113A) with L74A, A113K", "test": "Differential scanning fluorimetry, L73A mutant", "settings": "enzyme L73A 5 µM, no ligand", "experimental": "as §1"}, "[4]": {"molecular_target": "T4, pig kidney FBPase Y113A (Sus scrofa, UniProt P00636, Y114A)", "T4 construct": "His6 (C); made in house; host or cells: Escherichia coli BL21 (DE3)", "T4 sequence (P00636 1-338 Y114A)": "T1 sequence (P00636 1-338 K113A) with A113K, Y114A", "test": "Differential scanning fluorimetry, Y113A mutant", "settings": "no ligand", "experimental": "as §1"}, "[5]": {"molecular_target": "T5, pig kidney FBPase M248D (Sus scrofa, UniProt P00636, M249D)", "T5 construct": "His6 (C); made in house; host or cells: Escherichia coli BL21 (DE3)", "T5 sequence (P00636 1-338 M249D)": "T1 sequence (P00636 1-338 K113A) with A113K, M249D", "test": "Differential scanning fluorimetry, M248D mutant", "settings": "enzyme M248D 5 µM, no ligand", "experimental": "as §1"}, "[6]": {"molecular_target": "T6, pig kidney FBPase M177A (Sus scrofa, UniProt P00636, M178A)", "T6 construct": "His6 (C); made in house; host or cells: Escherichia coli BL21 (DE3)", "T6 sequence (P00636 1-338 M178A)": "T1 sequence (P00636 1-338 K113A) with A113K, M178A", "test": "Differential scanning fluorimetry, M177A mutant", "settings": "enzyme M177A 5 µM, no ligand", "experimental": "as §1"}, "[7]": {"molecular_target": "T7, pig kidney FBPase L56A (Sus scrofa, UniProt P00636, L57A)", "T7 construct": "His6 (C); made in house; host or cells: Escherichia coli BL21 (DE3)", "T7 sequence (P00636 1-338 L57A)": "T1 sequence (P00636 1-338 K113A) with L57A, A113K", "test": "Differential scanning fluorimetry, L56A mutant", "settings": "enzyme L56A 5 µM, no ligand", "experimental": "as §1"}, "[8]": {"molecular_target": "T8, pig kidney FBPase Y164A (Sus scrofa, UniProt P00636, Y165A)", "T8 construct": "His6 (C); made in house; host or cells: Escherichia coli BL21 (DE3)", "T8 sequence (P00636 1-338 Y165A)": "T1 sequence (P00636 1-338 K113A) with A113K, Y165A", "test": "Differential scanning fluorimetry, Y164A mutant", "settings": "enzyme Y164A 5 µM, no ligand", "experimental": "as §1"}},
  "note": "Where a chain is given by its changes, count along the chain named. Names and notes keep the numbering of the source.",
  "data": [
    {"molecule": "B1", "values": [
      {"measurement": "melting point, No Ligand", "setting": "[1]; enzyme K112A 5 µM", "result": "51.0 (± 2.50) °C"},
      {"measurement": "decrease in melting temperature compared with WT", "setting": "[1]; enzyme K112A", "result": "approximately 6 °"}
    ]},
    {"molecule": "B2", "values": [
      {"measurement": "melting point, No Ligand", "setting": "[2]", "result": "56.0 (± 2.75) °C"}
    ]},
    {"molecule": "B3", "values": [
      {"measurement": "melting point, No Ligand", "setting": "[3]", "result": "55.8 (± 2.50) °C"}
    ]},
    {"molecule": "B4", "values": [
      {"measurement": "melting point, No Ligand", "setting": "[4]; enzyme Y113A 5 µM", "result": "50.0 (± 2.25) °C"},
      {"measurement": "decrease in melting temperature compared with WT", "setting": "[4]; enzyme Y113A", "result": "approximately 6 °"}
    ]},
    {"molecule": "B5", "values": [
      {"measurement": "melting point, No Ligand", "setting": "[5]", "result": "62.0 (± 1.25) °C"}
    ]},
    {"molecule": "B6", "values": [
      {"measurement": "melting point, No Ligand", "setting": "[6]", "result": "54.2 (± 1.75) °C"}
    ]},
    {"molecule": "B7", "values": [
      {"measurement": "melting point, No Ligand", "setting": "[7]", "result": "56.0 (± 3.00) °C"}
    ]},
    {"molecule": "B8", "values": [
      {"measurement": "melting point, No Ligand", "setting": "[8]", "result": "55.4 (± 2.25) °C"}
    ]}
  ]
}
